Laboratory results as given in patent US20240158497A1 (published 2024).
One block for each binder: values may come before it.

Experiments:
[1] = biological target: T1, Macaca Fascicularis LEPR extracellular domain expressed with a C-terminal myc-myc-hexahistidine tag (Macaca fascicularis, UniProt Q9MYL0 22-837 (rhesus entry)); assay: SPR Biacore 4000, bsAb captured by anti-human Fc, 37 C
T1 construct: Monomeric reagent; the whole entry is the construct with its tag; also called mfLEPR-MMH
Protocol: (§1) Equilibrium dissociation constants (KD values) for LEPR and GP130 binding to purified anti-LEPR/GP130 bispecific antibodies were determined using a real-time surface plasmon resonance biosensor using a Biacore 4000 instrument. All binding studies were performed in 10 mM HEPES, 150 mM NaCl, 3 mM EDTA, and 0.05% v/v Surfactant Tween-20, pH 7.4 (HBS-ET) running buffer at 25° C. and 37° C. The Biacore sensor surface was first derivatized by amine coupling with a monoclonal mouse anti-human Fc antibody (GE, #BR-1008-39) to capture anti-LEPR/GP130 bispecific antibodies. […] Different concentrations of LEPR or GP130 reagents were first prepared in HBS-ET running buffer (100 nM-3.7 nM; 3-fold serial dilution) and were injected over anti-human Fc captured anti-LEPR/GP130 bispecific antibody surface for 4 minutes at a flow rate of 30 μL/minute, while the dissociation of bispecific antibody bound LEPR or GP130 reagent was monitored for 10 minutes in HBS-ET running buffer. Kinetic association (kₐ) and dissociation (kd) rate constants were determined by fitting the real-time binding sensorgrams to a 1:1 binding model with mass transport limitation using Scrubber 2.0c curve-fitting software. Binding dissociation equilibrium constants (KD) and dissociative half-lives (t ½) were calculated from the kinetic rate constants as: […]

[2] = biological target: T2, human LEPR extracellular domain expressed with a C-terminal myc-myc-hexahistidine tag (human, UniProt P48357 22-839); assay: as above
T2 construct: Monomeric reagent; the whole entry is the construct with its tag; also called hLEPR-MMH; hLEPR.mmh
Protocol: as §1

[3] = biological target: T1, Macaca Fascicularis LEPR extracellular …; assay: SPR Biacore 4000, bsAb captured by anti-human Fc, 25 C
Protocol: as §1

[4] = biological target: T2, human LEPR extracellular domain …; assay: as above
Protocol: as §1

T1 sequence (Q9MYL0 other isoform, or with tags, fused parts or gaps): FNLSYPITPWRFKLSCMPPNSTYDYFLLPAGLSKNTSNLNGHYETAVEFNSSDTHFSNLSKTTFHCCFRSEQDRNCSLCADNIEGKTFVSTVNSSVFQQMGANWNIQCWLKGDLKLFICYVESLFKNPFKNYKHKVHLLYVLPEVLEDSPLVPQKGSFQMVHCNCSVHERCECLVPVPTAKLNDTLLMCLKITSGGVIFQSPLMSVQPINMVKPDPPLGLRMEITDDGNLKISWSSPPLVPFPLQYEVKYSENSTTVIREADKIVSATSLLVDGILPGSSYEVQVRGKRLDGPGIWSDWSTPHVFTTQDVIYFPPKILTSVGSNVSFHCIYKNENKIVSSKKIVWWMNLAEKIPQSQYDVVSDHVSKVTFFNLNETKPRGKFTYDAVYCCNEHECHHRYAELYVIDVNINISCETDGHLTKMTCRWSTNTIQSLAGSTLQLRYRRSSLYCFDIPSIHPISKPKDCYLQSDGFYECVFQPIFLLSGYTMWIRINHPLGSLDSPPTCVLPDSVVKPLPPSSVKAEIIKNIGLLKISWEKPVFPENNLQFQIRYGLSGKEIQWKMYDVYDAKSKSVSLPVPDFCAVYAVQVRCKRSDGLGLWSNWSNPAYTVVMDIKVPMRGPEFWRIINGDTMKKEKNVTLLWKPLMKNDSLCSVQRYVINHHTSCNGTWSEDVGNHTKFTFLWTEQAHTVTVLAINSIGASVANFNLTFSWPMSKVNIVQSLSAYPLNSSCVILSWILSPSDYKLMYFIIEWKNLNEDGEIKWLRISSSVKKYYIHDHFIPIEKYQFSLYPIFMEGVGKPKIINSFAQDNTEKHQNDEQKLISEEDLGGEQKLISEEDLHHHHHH
T2 sequence (P48357 other isoform, or with tags, fused parts or gaps): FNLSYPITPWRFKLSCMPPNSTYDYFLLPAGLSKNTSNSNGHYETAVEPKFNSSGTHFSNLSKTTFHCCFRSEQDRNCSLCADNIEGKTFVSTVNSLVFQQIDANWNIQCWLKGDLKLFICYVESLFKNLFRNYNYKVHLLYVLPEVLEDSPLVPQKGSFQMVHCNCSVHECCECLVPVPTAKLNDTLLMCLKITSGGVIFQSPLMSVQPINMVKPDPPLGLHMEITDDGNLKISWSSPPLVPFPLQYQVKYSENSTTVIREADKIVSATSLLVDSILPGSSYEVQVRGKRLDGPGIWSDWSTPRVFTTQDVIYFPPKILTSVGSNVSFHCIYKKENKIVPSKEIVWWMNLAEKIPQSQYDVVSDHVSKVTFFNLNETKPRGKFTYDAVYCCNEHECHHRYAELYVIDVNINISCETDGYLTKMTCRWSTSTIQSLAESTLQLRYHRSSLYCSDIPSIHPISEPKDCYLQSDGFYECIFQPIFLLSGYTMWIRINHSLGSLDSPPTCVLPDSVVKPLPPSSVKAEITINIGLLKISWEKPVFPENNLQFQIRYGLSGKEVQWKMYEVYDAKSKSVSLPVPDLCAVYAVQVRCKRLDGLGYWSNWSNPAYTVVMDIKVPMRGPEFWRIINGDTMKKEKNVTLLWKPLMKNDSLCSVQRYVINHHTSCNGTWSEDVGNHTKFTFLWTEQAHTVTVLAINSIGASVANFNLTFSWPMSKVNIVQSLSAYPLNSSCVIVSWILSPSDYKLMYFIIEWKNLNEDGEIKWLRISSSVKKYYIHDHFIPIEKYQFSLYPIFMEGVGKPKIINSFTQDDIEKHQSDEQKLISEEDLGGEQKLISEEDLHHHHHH

100 nM mfLEPR-MMH Bound (RU) [1]: 163 RU | Kd [1]: 6.17 nM | koff [1]: 0.000571 s⁻¹ | kon [1]: 92500 M⁻¹ s⁻¹ | t½ [1]: 20 min | 100 nM hLEPR-MMH Bound (RU) [2]: 69 RU | Kd [2]: 20.5 nM | koff [2]: 0.000798 s⁻¹ | kon [2]: 39000 M⁻¹ s⁻¹ | t½ [2]: 14 min | 100 nM mfLEPR-MMH Bound (RU) [3]: 107 RU | Kd [3]: 2.88 nM | koff [3]: 0.000119 s⁻¹ | kon [3]: 41300 M⁻¹ s⁻¹ | t½ [3]: 97 min | 100 nM hLEPR-MMH Bound (RU) [4]: 44 RU | Kd [4]: 7.31 nM | koff [4]: 0.000172 s⁻¹ | kon [4]: 23600 M⁻¹ s⁻¹ | t½ [4]: 67 min
B1: bsAb19148D (bispecific antibody, V domains shown)
VH 1: QVQLVESGGGVVQPGRSLRLSCTASGFTFSSYAMYWVRQAPGKGLEWVSVIYYDGSYKYYADSVKGRFTISRDNSKNTLYLQMDSLRAEDTAVYYCASYNWNYWYFDFWGRGTLVTVSS
VH 2: QVQLVQSGTEVKKPGSSVKVSCKASGGTFSTYPINWVRQAPGQGLEWMGGIIPIFGTASYAQKFQGRVAITTDESTSTAYMELNSLRSEDTAVYYCARERPNWGSNDYWGQGTLVTVSS
VL: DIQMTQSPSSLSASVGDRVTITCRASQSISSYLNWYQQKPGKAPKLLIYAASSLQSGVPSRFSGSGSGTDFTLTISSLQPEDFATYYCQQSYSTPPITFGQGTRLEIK
notes: common light chain

100 nM mfLEPR-MMH Bound (RU) [1]: 173 RU | Kd [1]: 5.05 nM | koff [1]: 0.000522 s⁻¹ | kon [1]: 103000 M⁻¹ s⁻¹ | t½ [1]: 22 min | 100 nM hLEPR-MMH Bound (RU) [2]: 74 RU | Kd [2]: 16.6 nM | koff [2]: 0.000589 s⁻¹ | kon [2]: 35400 M⁻¹ s⁻¹ | t½ [2]: 20 min | 100 nM mfLEPR-MMH Bound (RU) [3]: 110 RU | Kd [3]: 2.86 nM | koff [3]: 0.000124 s⁻¹ | kon [3]: 43300 M⁻¹ s⁻¹ | t½ [3]: 93 min | 100 nM hLEPR-MMH Bound (RU) [4]: 45 RU | Kd [4]: 5.91 nM | koff [4]: 0.000151 s⁻¹ | kon [4]: 25400 M⁻¹ s⁻¹ | t½ [4]: 77 min
B2: bsAb19141D (bispecific antibody, V domains shown)
VH 1: B1 VH 1
VH 2: EVQLVESGGGVVRPGGSLRLSCTASGFTFDDYGMSWVRQAPGKGLEWVSGINWNGGRTEYADAVKGRFIISRDNAKNSLYLQMNSLRAEDTALYFCARTELRWDYWGQGTLVTVSS
VL: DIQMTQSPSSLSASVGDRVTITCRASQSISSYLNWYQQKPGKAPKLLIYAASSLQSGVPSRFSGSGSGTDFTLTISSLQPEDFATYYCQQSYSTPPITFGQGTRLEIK
notes: common light chain

100 nM mfLEPR-MMH Bound (RU) [1]: 163 RU | Kd [1]: 5.64 nM | koff [1]: 0.000565 s⁻¹ | kon [1]: 100000 M⁻¹ s⁻¹ | t½ [1]: 20 min | 100 nM hLEPR-MMH Bound (RU) [2]: 65 RU | Kd [2]: 20.5 nM | koff [2]: 0.000791 s⁻¹ | kon [2]: 38500 M⁻¹ s⁻¹ | t½ [2]: 15 min | 100 nM mfLEPR-MMH Bound (RU) [3]: 107 RU | Kd [3]: 2.8 nM | koff [3]: 0.000119 s⁻¹ | kon [3]: 42500 M⁻¹ s⁻¹ | t½ [3]: 97 min | 100 nM hLEPR-MMH Bound (RU) [4]: 42 RU | Kd [4]: 7.13 nM | koff [4]: 0.000162 s⁻¹ | kon [4]: 22700 M⁻¹ s⁻¹ | t½ [4]: 71 min
B3: bsAb19147D (bispecific antibody, V domains shown)
VH 1: B1 VH 1
VH 2: EVQLVESGGGLVQPGGSLRLSCTASGFTFSNYAIFWVRQAPGKGLEYVSGISNNGVTKYYADSVRDRFTISRDNSRNTVSIQMDSLRTEDMAVYYCARENWGSDDGFDIWGQGTMVTVSS
VL: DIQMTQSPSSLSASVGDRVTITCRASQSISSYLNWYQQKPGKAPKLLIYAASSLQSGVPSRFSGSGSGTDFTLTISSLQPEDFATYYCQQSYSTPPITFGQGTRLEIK
notes: common light chain

100 nM mfLEPR-MMH Bound (RU) [1]: 175 RU | Kd [1]: 5.6 nM | koff [1]: 0.000572 s⁻¹ | kon [1]: 102000 M⁻¹ s⁻¹ | t½ [1]: 20 min | 100 nM hLEPR-MMH Bound (RU) [2]: 75 RU | Kd [2]: 21.4 nM | koff [2]: 0.000818 s⁻¹ | kon [2]: 38200 M⁻¹ s⁻¹ | t½ [2]: 14 min | 100 nM mfLEPR-MMH Bound (RU) [3]: 112 RU | Kd [3]: 2.69 nM | koff [3]: 0.000121 s⁻¹ | kon [3]: 45000 M⁻¹ s⁻¹ | t½ [3]: 95 min | 100 nM hLEPR-MMH Bound (RU) [4]: 47 RU | Kd [4]: 7.36 nM | koff [4]: 0.00018 s⁻¹ | kon [4]: 24500 M⁻¹ s⁻¹ | t½ [4]: 64 min
B4: bsAb19140D (bispecific antibody, V domains shown)
VH 1: B1 VH 1
VH 2: QVQLQESGPGLVKPSETLSLTCTVSGGSISNYYWTWIRQPPGKGLEWIGHISNSGTTNYNPSLKSRVTISVDTSKNQFSLKLTSVTAADTAVYYCARLPLGIAAVDTDYYYYFGMDVWGQGTTVTVSS
VL: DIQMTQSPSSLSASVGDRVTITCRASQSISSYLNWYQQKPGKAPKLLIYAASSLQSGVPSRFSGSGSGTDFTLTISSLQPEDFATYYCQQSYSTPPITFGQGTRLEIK
notes: common light chain

100 nM mfLEPR-MMH Bound (RU) [1]: 162 RU | Kd [1]: 5.48 nM | koff [1]: 0.000566 s⁻¹ | kon [1]: 103000 M⁻¹ s⁻¹ | t½ [1]: 20 min | 100 nM hLEPR-MMH Bound (RU) [2]: 66 RU | Kd [2]: 20.8 nM | koff [2]: 0.000805 s⁻¹ | kon [2]: 38600 M⁻¹ s⁻¹ | t½ [2]: 14 min | 100 nM mfLEPR-MMH Bound (RU) [3]: 102 RU | Kd [3]: 2.75 nM | koff [3]: 0.000123 s⁻¹ | kon [3]: 44900 M⁻¹ s⁻¹ | t½ [3]: 94 min | 100 nM hLEPR-MMH Bound (RU) [4]: 41 RU | Kd [4]: 6.62 nM | koff [4]: 0.000165 s⁻¹ | kon [4]: 24900 M⁻¹ s⁻¹ | t½ [4]: 70 min
B5: bsAb19145D (bispecific antibody, V domains shown)
VH 1: B1 VH 1
VH 2: EVQLVESGGGLVQPGRSLRLSCAASGFTLDDFAMHWVRQAPGKGLEWVSGISWNSGNIGYADSVKGRFTISRDNARNSLYLQMNSLRAEDTALYYCTSGYYLYYAMDVWGQGTTVTVSS
VL: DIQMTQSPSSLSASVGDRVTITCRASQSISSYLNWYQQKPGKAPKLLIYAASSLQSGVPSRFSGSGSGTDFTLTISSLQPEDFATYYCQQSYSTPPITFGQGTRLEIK
notes: common light chain
